From the DeepSol protein solubility set

experiment: soluble on expression in E. coli; label from the status in PepcDB or PDB records

| Sequence | soluble on expression in E. coli |
| --- | --- |
| MSLKYKLLVLDLDGTLTNAKKEITLHNREALIRVQQQGVKLILASGRPTFGIVPLADELRMKEFGGFILSYNGGEIIDWSTGEIVYANVLPDEVIPRLYECATRNQLPILTYDRQYIITEYPDDVYVRKEAFLNKMQIYPSTDFLKDIRLPLPKCLIVGEPHRLIPIEAELSVELQGQLSVYRSEPFFLELVPQGIDKAQSLSVLLNKLNMNREEMVAVGDGYNDLSMIQFAGLGVAMGNAQEPVKKAADYITLSNEEDGVAAVVNKFFTKAPEKGEGHHHHHH | soluble |
| MNTKLTKIISGLFVATAAFQTASAGNITDIKVSSLPNKQKIVKVSFDKEIVNPTGFVTSSPARIALDFEQTGISMDQQVLEYADPLLSKISAAQNSSRARLVLNLNKPGQYNTEVRGNKVWIFINESDDTVSAPARPAVKAAPAAPAKQQAAAPFTESVVSVSAPFSPAKQQAAASAKQTNIDFRKDGKNAGIIELAALGFAGQPDISQQHDHIIVTLKNHTLPTALQRSLDVADFKTPVQKVTLKRLNNDTQLIITTTGNWELVNKSAAPGYFTFQVLPKKQNLESGGVNNAPKTFTGRKISLDFQDVEIRTILQILAKESGMNIVASDSVSGKMTLSLKDVPWDQALDLVMQARNLDMRQQGNIVNIAPRDELLAKDKAFLQAEKDIADLGALYSQNFQLKYKNVEEFRSILRLDNADTTGNRNTLVSGRGSVLIDPATNTLIVTDTRSVIEKFRKLIDELDVPAQQVMIEARIVEAADGFSRDLGVKFGATGRKKLKNETSAFGWGVNSGFGGGDKWEAQTKINLPVAAAANSISLVRAISSGALNLELSASESLSKTKTLANPRVLTQNRKEAKIESGYEIPFTVTTASGGGNSTNTELKKAVLGLTVTPNITPDGQIIMTVKINKDSPAQCASGNNTILCISTKSLNTQAMVENGGTLIVGGIYEENNGNTLTKVPLLGDIPVIGNLFKTRGKKTDRRELLIFITPRIIDTAGNSLRY | not soluble |
| IKEGQLAEKTIRANKNIENTYETEQRKKLAAEAVTPEYIYQEDTASVQHNRIDKLFKLIDSANEKVDKEYSNKQAKAKKEETIPAPTVEERVASLKSLFESLPQDEVTFYQSFPNVFYQTIFTLTSEQLDKVRSESLMLVDDAMQNHVRESDLDKIRQEANGKIQYLDITSTMQQVIRYIVNQGIVVNDIANEKRTEELRQKAMNAVQPAMIYQGEIIVREGTQIDAKAVEKLELLGMTSQNTS | not soluble |
| MAHTKKRIFDGLYAQLEETDGNVVLFSAKGEPSVIFEITNPVQQLCTDAEQYMLFQDVLSNVVQTLGEGYALQKQDVLCKQSYHHEVPEDAEFLTKSYFRYFEGREFTEIRTYLILTQEAQRSQFVQYDPKKWLDFHSKVSKVSDILKEKNIKYRKLSKEEVNEYCHRFMAFQFRHGPFSMTNFKASDEYLKIGDRVVRSYPLVDIDEINLPSLVKPYTQMNINGYGIATDLFSFLTSVPHADCVVFNQVVQIPNQRKLLRKLQAKAKRHGSMPDPSNKIAKEDIEEVLDRLAVDSTQLVYCNFNILVSCLVDKVTPVTSYLETKLYECGIMPSRTAYNQLELFTDSFPGNGYAFNPDYDLFLTLSDVALCFFFKEHLKGSEDTPLTTYYTDRQGLPVCIDITGKEGKVKMTDNANFFCIGPSGSGKSFHMNSVVRQLLEQNTDVVMVDTGDSYEGICGYYKGTYISYSKEKPISMNPFKVTKEEYDLNFGEKKNFLKSLIFLIFKGNEFPSKIEDMLINQTIVEYYEAYFHPFTKFTEKEREGLRQKLLVASKMEEDYDKFSHSMEDIDAQIREAEMDKQAESRALMLPAEARRLKLLRQCRSLYALAQDEAASKGEKERALQIIENYKKELYNNSMLIKIDKQIDHIEEQKRRLKVRVLSFNSYYEFALERIPQIVAQEKIQFNIRDFAAILKQFYRGGELEMTLNSDLNVNLFDEQFIVFEIDKIKDDPVLFPIVVLIIMDVFLQKMRIKKGRKALIIEEAWL | not soluble |
| MASDLESSLTSIDWLPQLTLRATIEKLGSASQAGPPGSSRKCSPGSPTDPNATLSKDEAAVHQDGKPRYSYATLITYAINSSPAKKMTLSEIYRWICDNFPYYKNAGIGWKNSIRHNLSLNKCFRKVPRPRDDPGKGSYWTIDTCPDISRKRRHPPDDDLSQDSPEQEASKSPRGGVAGSGEASLPPEGNPQMSLQSPTSIASYSQGTGSVDGGAVAAGASGRESAEGPPPLYNTNHDFKFSYSEINFQDLSWSFRNLYKSMLEKSSSSSQHGFSSLLGDIPPSNNYYMYQQQQPPPPQQQQQQQQPPQPPPQQSQPQQQQAPAQGPSAVGGAPPLHTPSTDGCTPPGGKQAGAEGYGPPPVMAMHPPPLQHGGYHPHQHHPHSHPAQQPPPPQPQAQGQAPINNTGFAFPSDWCSNIDSLKESFKMVNRLNWSSIEQSQFSELMESLRQAEQKNWTLDQHHIANLCDSLNHFLTQTGHVPPQGGTHRPPAPARIADSCALTSGKQESAMSQVNSYGHPQAPHLYPGPSPMYPIPTQDSAGYNRPAHHMVPRPSVPPPGANEEIPDDFDWDLIT | soluble |
| MGQEKLLFDQKYKIIKGEKKEKKKNQRANRREHQQKREIMRFKKSFTCIDMHTEGEAARIVTSGLPHIPGSNMAEKKAYLQENMDYLRRGIMLEPRGHDDMFGAFLFDPIEEGADLGIVFMDTGGYLNMCGHNSIAAVTAAVETGIVSVPAKATNVPVVLDTPAGLVRGTAHLQSGTESEVSNASIINVPSFLYQQDVVVVLPKPYGEVRVDIAFGGNFFAIVPAEQLGIDISVQNLSRLQEAGELLRTEINRSVKVQHPQLPHINTVDCVEIYGPPTNPEANYKNVVIFGNRQADRSPCGTGTSAKMATLYAKGQLRIGETFVYESILGSLFQGRVLGEERIPGVKVPVTKDAEEGMLVVTAEITGKAFIMGFNTMLFDPTDPFKNGFTLKQYIWSSSVDKLAAALEHHHHHH | soluble |
| SIDSKLQTLGEQLMQGKRGAIVMIEPETGEVLCLVSSPSYDPSLLAGKDRGKNHLEMEHDRNKPLYARAIQATYPPGSTFKPAQGAIFLQEGVIRPTDAFSCYHGFPPLNNRPACHSHGSPLSLVPALATSCNAFFCWGLRAMLDNRRFYPSVQEAFEHWKNRIVGLGFGYRLGLDLPGERRGYIPNSKVYDKAYKGRWNSSTIISISIGQGEILATPLQIANLGVIIANRGRYRRPHVVKAIQGIPLDTAYTNWQNSGISPANMEYIVEGMARAVTGGTCHAANFAPGEIEVCGKTGTAENPHGKDHSAFLGFAPRNNPKVVVSVYVENGGFGAVYGVPIGRVMMEYYLREGKLSPEGEAVATKMSNTAIHYSNVF | not soluble |
| MAHHHHHHMSEQNGAHSLQAELERMNAAIESYALQLDTINSAIESIDSENHSDDVSRQIFEYQTACERDPANISAEDALDTVTRLENTLKIVRRRNQLLAKENATQQKLLNDRSKFLLKETKNYENLVDRTGWHEQCSLNPEDEAQKASDIQEMSQLEVTVQRELRAAHTILKKKEALLRGLEEQLAKGTDLDAELNNAYNDIRVRKRECRELELRLEHLRKCSKKNDEALTVFENHGQSVSIEYMETDKDFLKDAVAQMKLVCRRQDNVIRAQLTRQQQLQTRLDTILRSLREMNLEKEYERNVSKSALVPSASREEPEDVSSILPKEETIPIHTYRLIFKNKELMNTNVVRKNMLVLEKEGVIQALEASLMKYANALNMTTRQLENMKINKGFEMTELMVELQQQHKNYLQQLEQIMQENNKLKKQLYRTPQLRTLIKNR | not soluble |
| MGSDKIHHHHHHMKKLDLDVLAMVVAVAESGSFAQGAQAVHRSPSAVSMQIKALEDALGKPLFIRDTRNVTATDDGRMLAEYGRRMLAMRDEAWASVVRPEIRGRVTIGVPDDYISSLLPQVLGKFAAMHPRVEVRVIGQPSSALVPMLKDNTVDLACLTRIKGVTGELIRMEPLVWVGSPKRNVWEERPLPVAFFTHGGSMARDHAVKALNRRKIPYRMSYESPSHLGLLSMVEAGLAVAPLARCCIPDHLVQLSESHGLPSLGELEVVLARSAKSARPPCDYLAEQILDEWRT | not soluble |
| MSSKHEILNALKLSALTNHPMPSIDVAPRVEDLVGQFETNLKTVAGTLHREGGLAALQAKVDELIAQGLQVISLVEGVTANRDVPPTAHELRDIDYAVIPGDVGVAENGAIWVNNKNLGHRVTPFICENLILALPIHKIVPNMHQAAKEVTLDAGEFGVFIAGPSKTADIEQALVVGAHGACSLNVYLV | soluble |
| GSNSQVWSALQMSKALQDSAPDRPSPVERIVSRDIARGYERIPIPCVNAVDSEPCPSNYKYVSQNCVTSPMNIDRNITHLQYCVCIDDCSSSNCMCGQLSMRCWYDKDGRLLPEFNMAEPPLIFECNHACSCWRNCRNRVVQNGLRARLQLYRTRDMGWGVRSLQDIPPGTFVCEYVGELISDSEADVREEDSYLFDLDNKDGEVYCIDARFYGNVSRFINHHCEPNLVPVRVFMAHQDLRFPRIAFFSTRLIEAGEQLGFDYGERFWDIKGKLFSCRCGSPKCRHS | soluble |
